Measured values reported in the supplement of paper PMC6757056.
± gives the standard deviation of the averaged measurements.

B1: library; a variant is named by its letters at N, in order (parent)
chain: GCUGUCACCGAGAAACUGUGAAGUAUAUCUUAAACCUGGGCACUUAAAAGAUAUAUGGAGUUAGUAGUGCAACCUGCUCGGUCUGAUGAGUCCNNNNNNGGACGAAACAGC

Assays:
cyclic di-GMP [1] = variants of: B1; test: normalized RNA/DNA level without ligand (relative to sTRSVctl = 100) (log10 (% of sTRSVctl)); HEK293T; ligand: cyclic di-GMP (c-di-GMP-II aptamer); higher = less ribozyme self-cleavage, higher mRNA level; conditions: reporter: mCherry (pCS4076), ligand present: no
How it was run: (§1)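 Total RNA, extracted with EDTA 72 h after HEK293T cells were transfected with 4 µg per 6-well well of reporter-linked ribozyme switch library plasmids, was reverse-transcribed, amplified, barcoded and sequenced. Ligand, if used, was added 1 h before transfection. RNA level was derived from RNA reads divided by DNA reads and normalized to a spiked-in non-cleaving sequence or to the top sequences. This was multiplied by 100 and log10-transformed, with the top set of 25 sequences and a ≥100 DNA read minimum.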

cyclic di-GMP [2] = variants of: B1; test: normalized RNA/DNA level with ligand (relative to sTRSVctl = 100) (log10 (% of sTRSVctl)); HEK293T; ligand: cyclic di-GMP (c-di-GMP-II aptamer); ligand concentration (+) RNA-Seq: 1 mM; higher = less ribozyme self-cleavage, higher mRNA level; conditions: reporter: mCherry (pCS4076), ligand present: yes
How it was run: as §1

| Variant | normalized RNA/DNA level without ligand (log10) (cyclic di-GMP [1]) | normalized RNA/DNA level with ligand (log10) (cyclic di-GMP [2]) |
| --- | --- | --- |
| UGUUGG | 1.71 ± 0.04 | 1.86 ± 0.076 |
| UUAUCG | 1.783 ± 0.014 | 1.86 ± 0.14 |
| UUAUCA | 1.76 ± 0.11 | 1.91 ± 0.14 |
| UUAUCU | 1.704 ± 0.0044 | 1.85 ± 0.083 |
| CGUUGG | 1.737 ± 0.0074 | 1.85 ± 0.072 |
| CGUUGA | 1.52 ± 0.043 | 1.71 ± 0.14 |
| CGUUGC | 1.78 ± 0.027 | 1.88 ± 0.071 |
| CGUUGU | 1.76 ± 0.018 | 1.86 ± 0.1 |
| AUACCC | 1.75 ± 0.043 | 1.89 ± 0.086 |
| AUACCU | 1.7 ± 0.054 | 1.85 ± 0.046 |
| AUACCA | 1.663 ± 0.0032 | 1.79 ± 0.11 |
| UGUUAA | 1.693 ± 0.01 | 1.85 ± 0.09 |
| UGUUAU | 1.6763 ± 0.0012 | 1.84 ± 0.14 |
| UGUUAG | 1.74 ± 0.03 | 1.86 ± 0.14 |
| UGUUAC | 1.735 ± 0.0055 | 1.91 ± 0.14 |
| UUACCU | 1.74 ± 0.022 | 1.86 ± 0.069 |
| UUACCG | 1.8 ± 0.035 | 1.88 ± 0.11 |
| AGUUUG | 1.65 ± 0.088 | 1.77 ± 0.096 |
| AGUUUU | 1.79 ± 0.033 | 1.89 ± 0.13 |
| AGUUUC | 1.75 ± 0.025 | 1.85 ± 0.13 |

| Variant | normalized RNA/DNA level without ligand (log10) (cyclic di-GMP [1]) | normalized RNA/DNA level with ligand (log10) (cyclic di-GMP [2]) |
| --- | --- | --- |
| GUAUAA | 1.501 ± 0.012 | 1.69 ± 0.088 |
| GUAUAC | 1.661 ± 0.0097 | 1.81 ± 0.084 |
| GUAUAU | 1.6 ± 0.031 | 1.75 ± 0.11 |
| UUAACA | 1.7 ± 0.019 | 1.8 ± 0.091 |
| UUAACU | 1.77 ± 0.02 | 1.87 ± 0.071 |
| UUAACG | 1.81 ± 0.054 | 1.88 ± 0.11 |
| UUAACC | 1.78 ± 0.073 | 1.85 ± 0.14 |
| UUAAAC | 1.7 ± 0.057 | 1.8 ± 0.097 |
| UUAAAA | 1.645 ± 0.0029 | 1.8 ± 0.066 |
| UUAAAG | 1.65 ± 0.023 | 1.81 ± 0.11 |
| CUACGG | 1.8 ± 0.061 | 1.89 ± 0.08 |
| CUACGC | 1.74 ± 0.043 | 1.86 ± 0.084 |
| CUACGU | 1.73 ± 0.017 | 1.82 ± 0.081 |
| AGUUAU | 1.67 ± 0.06 | 1.86 ± 0.11 |
| AGUUAC | 1.7078 ± 0.0015 | 1.85 ± 0.15 |
| AGUUAA | 1.52 ± 0.08 | 1.68 ± 0.086 |
| GUACGU | 1.63 ± 0.039 | 1.81 ± 0.063 |
| GGUUUA | 1.582 ± 0.0053 | 1.79 ± 0.099 |
| GGUUUU | 1.7 ± 0.015 | 1.84 ± 0.077 |
| GGUUUC | 1.8 ± 0.12 | 1.86 ± 0.12 |

| Variant | normalized RNA/DNA level without ligand (log10) (cyclic di-GMP [1]) | normalized RNA/DNA level with ligand (log10) (cyclic di-GMP [2]) |
| --- | --- | --- |
| GGUUCU | 1.66 ± 0.044 | 1.77 ± 0.083 |
| GGUUCA | 1.6 ± 0.043 | 1.73 ± 0.12 |
| GGUUCG | 1.7 ± 0.046 | 1.88 ± 0.075 |
| CUAGUC | 1.75 ± 0.039 | 1.83 ± 0.055 |
| CUAGUA | 1.56 ± 0.046 | 1.7 ± 0.04 |
| CUAGUU | 1.739 ± 0.0023 | 1.89 ± 0.06 |
| CUAGUG | 1.529 ± 0.0021 | 1.69 ± 0.12 |
| CUAUAU | 1.64 ± 0.035 | 1.77 ± 0.13 |
| CUAUAC | 1.696 ± 0.016 | 1.83 ± 0.1 |
| CUAUAG | 1.679 ± 0.012 | 1.84 ± 0.15 |
| CUACAG | 1.73 ± 0.023 | 1.87 ± 0.035 |
| CUACAU | 1.57 ± 0.047 | 1.72 ± 0.13 |
| AUAACC | 1.75 ± 0.072 | 1.83 ± 0.1 |
| AUAACU | 1.67 ± 0.025 | 1.82 ± 0.068 |
| AUAACA | 1.62 ± 0.003 | 1.77 ± 0.14 |
| GUAACA | 1.68 ± 0.035 | 1.81 ± 0.11 |
| GUAACC | 1.77 ± 0.084 | 1.87 ± 0.092 |
| GUAACU | 1.7 ± 0.055 | 1.82 ± 0.13 |
